This note sets out measurements from patent publication US20190185561A1 (Seagen, published 2019).

The target of assay [1] is murine CD47 on murine CD47 positive tumor cells (mouse) (UniProt Q61735). As to the kind of experiment: saturation binding by flow cytometry on HT-2 (mouse T cells). (In flow cytometry, cells or beads pass a laser one at a time.)
For assay [2] the target is unchanged. The assay is described as follows: saturation binding by flow cytometry on HT-2 (mouse T cells); range printed beside the two rising curves (mIAP and Cleaved Vel), upper end.
For assay [3] the target is unchanged. The assay is described as follows: saturation binding by flow cytometry on HT-2 (mouse T cells); range printed beside the two rising curves (mIAP and Cleaved Vel), lower end.
The target of assay [4] is T1, human CD47 expressed on the cell surface (human, UniProt Q08722 19-323).
T1 construct: whole, on cells; also called CD47 on SW780, human red blood cells, HT1080, HCT116, Raji, L450cy and patient blood cells
The assay is described as follows: saturating cellular FACS on L450cy lymphoma cells.

Assay [5] has as its target T2, Soluble recombinant human CD47-Fc (R&D Systems) (human, UniProt Q08722 19-139).
T2 construct: Bought reagent; also called rhCD47; human CD47 (plate-coated); not shown: Fc part of the bought fusion protein
As to the kind of experiment: saturating ELISA on plates coated with human CD47; column head 'Average EC50 (nM)'.

Assay [6] has as its target T2, Soluble recombinant human CD47-Fc (R&D …). As to the kind of experiment: hCD47 ELISA, absorbance at 450 nm against antibody concentration. (In an ELISA, binding on a coated surface is turned into a signal by an enzyme label.)
The target in assay [7] is T1, human CD47 expressed on the cell surface. The assay is described as follows: saturation binding, flow cytometry, SW780 cells.
The target is the same in assay [8]. As to the kind of experiment: saturation binding, flow cytometry, SW780 cells. The source holds these as a separate data set.
Assay [9] shares this target. The assay is described as follows: saturation binding, flow cytometry, human red blood cells.
Assay [10] has the same target. As to the kind of experiment: saturation binding, flow cytometry, HT1080 cells.
For assay [11] the target is unchanged. As to the kind of experiment: saturation binding, flow cytometry, human red blood cells. This is another data set of the same source.
Assay [12] has the same target. The assay is described as follows: saturation binding, flow cytometry, SW780 cells. The source holds these as a separate data set.
The target is the same in assay [13]. As to the kind of experiment: saturation binding, flow cytometry, HCT116 cells.
Assay [14] has the same target. The assay is described as follows: saturation binding, flow cytometry, SW780 cells. The source holds these as a separate data set.
For assay [15] the target is unchanged. The assay is described as follows: saturation binding, flow cytometry, Raji cells.
Assay [16] deals with T2, Soluble recombinant human CD47-Fc (R&D …). The assay is described as follows: saturation binding ELISA on rhCD47.
Assay [17] deals with T1, human CD47 expressed on the cell surface. As to the kind of experiment: saturation binding, flow cytometry, SW780 cells; SW780 human bladder cancer cells.
Assay [18] shares this target. As to the kind of experiment: saturation binding, flow cytometry, HCT116 cells; HCT116 cells.

Numbering of substitutions follows the chain as printed. Names and notes keep the numbering of the source.

Sequence of murine CD47 on murine CD47 positive tumor cells (mouse) (Q61735 19-303): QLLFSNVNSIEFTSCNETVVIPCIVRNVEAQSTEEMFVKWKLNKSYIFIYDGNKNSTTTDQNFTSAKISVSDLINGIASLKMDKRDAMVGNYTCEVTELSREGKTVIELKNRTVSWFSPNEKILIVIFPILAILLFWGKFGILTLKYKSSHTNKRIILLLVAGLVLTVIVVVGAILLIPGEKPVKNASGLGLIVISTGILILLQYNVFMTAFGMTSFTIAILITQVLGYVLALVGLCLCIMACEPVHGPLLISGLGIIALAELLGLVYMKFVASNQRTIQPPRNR

Broadly, the EC50 (read off the curve) is the concentration that produces a half-maximal response. Broadly, the Kd is the free concentration of one partner at which half of the binding sites on the other are occupied at equilibrium, for simple one-to-one binding. mIAP301 (antibody) had an EC50 (read off the curve) in assay [1] of 10 to 20 nM. Moreover, the Kd was less than 15 nM in [2] and greater than 7.5 nM in [3].

B1: mB6H12 (antibody, V domains shown)
VH: EVQLVESGGDLVKPGGSLKLSCAASGFTFSGYGMSWVRQTPDKRLEWVATITSGGTYTYYPDSVKGRFTISRDNAKNTLYLQIDSLKSEDTAIYFCARSLAGNAMDYWGQGTSVTVSS
VL: DIVMTQSPATLSVTPGDRVSLSCRASQTISDYLHWYQQKSHESPRLLIKFASQSISGIPSRFSGSGSGSDFTLSINSVEPEDVGVYYCQNGHGFPRTFGGGTKLEIKR
notes: Murine parental antibody; also called murine B6H12; mouse B6H12
A word on the EC50: it is the concentration giving half of the maximal effect. In turn, B1 gave a Kd in [4] of 1.2 nM. Moreover, the EC50 in assay [5] was 37 nM.

B2: hB6H12.4 (antibody, V domains shown)
VH: EVQLLESGGGLVQPGGSLRLSCAASGFTFSGYGMSWVRQAPGKRLEWVATITSGGTYTYYPDSVKGRFTISRDNSKNTLYLQMNSLRAEDTAIYFCARSLAGNAMDYWGQGTLVTVSS
VL: DIQMTQSPSSLSASVGDRVTLTCRASQTISNYLAWYQQKPGKVPKLLIKFASTLQSGVPSRFSGSGSGSDFTLTISSLQPEDVATYYCQNGHGFPRTFGQGTKLEIKR
notes: also called hvH1/hvK4; antibody 4 (bin A)
The molecule B2 registered a Kd in [4] of 0.9 nM. Moreover, in assay [6], the “EC50 (read off the curve)” value is roughly 1 nM. Also, the EC50 in assay [5] was 24 nM.

B3: hB6H12.2 (antibody, V domains shown)
VH: B2 VH
VL: EIVMTQSPDFQSVTPKEKVTLTCRASQTISDYLHWYQQKPDQSPKLLIKFASQSISGVPSRFSGSGSGTDFTLTINSLEAEDAATYYCQNGHGFPRTFGQGTKLEIKR
notes: also called hvH1/hvK2; antibody 2 (bin A)
With B3, binding in [4] was characterised by a dissociation constant (Kd) of 0.9 nM. For the same molecule, the EC50 in [5] is 30 nM.

B4: Cleaved Vel-IPV-hB6H12.4 (antibody, V domains shown)
VH: B2 VH
VL: B2 VL
notes: MMP2-cleaved; IgG1
B4: binding in assay [7] was put at a Kd of 9.2 nM.

B5: Ab47 (antibody, V domains shown)
VH: B2 VH with L5V, R44G, S75A, T78S, I93V, F95Y
VL: EIVLTQSPATLSLSPGERATLSCRASQTISDYLHWYQQKPGQAPRLLIKFASQSISGIPARFSGSGSGTDFTLTISSLEPEDFAVYYCQNGHGFPRTFGQGTKVEIKR
notes: Humanized IgG1; also called alternatively humanized antibody Ab47; humanized IgG1 hB6H12 Ab47
For the molecule B5, the Kd in assay [8] came out at 9.6 nM; in assay [9], 12.1 nM; in assay [4] it was 0.5 nM; in [10] it was 21 nM; in [11] it was 26.5 nM; in assay [12], 8 nM. The Kd came to 7.8 nM in assay [13], 6.8 nM in [14], 3.3 nM in assay [15] and 1 nM in [16]. Further, the “EC50 (read off the curve)” value in [6] was roughly 1 nM. Besides, the EC50 in [5] worked out at 16 nM.

B6: hB6H12.20 (antibody, V domains shown)
VH: B2 VH with L5V, R44G, P61A, M83I, I93V, F95Y
VL: B2 VL
notes: also called hvH5/hvK4; antibody 20 (bin B)
In the case of B6, the dissociation constant (Kd) in assay [4] was found to be 1.8 nM. The “EC50 (read off the curve)” value in assay [6] is roughly 4 nM. In [5], the half-maximal effective concentration (EC50) worked out at 56 nM.

B7: Cleaved Vel-IPV-hB6H12.19 (antibody, V domains shown)
VH: B2 VH with L5V, R44G, P61A, M83I, I93V, F95Y
VL: B3 VL with T69S
notes: MMP2-cleaved; IgG1
As to B7, binding in [7] was put at a Kd of 26.6 nM.

B8: hB6H12.18 (antibody, V domains shown)
VH: B2 VH with L5V, R44G, P61A, M83I, I93V, F95Y
VL: B3 VL
notes: also called hvH5/hvK2; antibody 18 (bin B)
With B8, binding in assay [4] was characterised by a dissociation constant (Kd) of 1.1 nM. Also, the EC50 in assay [5] turned out to be 38 nM.

B9: Cleaved Vel-IPV-hB6H12.20 (antibody, V domains shown)
VH: B2 VH with L5V, R44G, P61A, M83I, I93V, F95Y
VL: B2 VL
notes: MMP2-cleaved; IgG1
In assay [7], B9 registered a Kd of 30.2 nM.

B10: hB6H12.1 (antibody, V domains shown)
VH: B2 VH
VL: B3 VL with T85V
notes: also called hvH1/hvK1; antibody 1 (bin A)
Consider B10, for which the Kd in assay [4] was found to be 0.9 nM. Moreover, the EC50 in assay [5] was 30 nM.

B11: hB6H12.3 G91A (antibody, V domains shown)
VH: B2 VH
VL: B3 VL with T69S, G91A
notes: IgG1; also called hB6H12.3 (deamidation mutant); hvH1/hvK3 G91A
Turning to B11, the Kd was found to be 62.3 nM in [17] and 2.7 nM in assay [16].

B12: hB6H12.19 (antibody, V domains shown)
VH: B2 VH with L5V, R44G, P61A, M83I, I93V, F95Y
VL: B3 VL with T69S
notes: also called hvH5/hvK3; antibody 19 (bin B)
Turning to B12, the Kd in assay [4] was found to be 1.3 nM. Moreover, the “EC50 (read off the curve)” value in [6] is roughly 3 nM. Also, the EC50 in assay [5] came to 55 nM.

B13: Ab47 G91A (antibody, name in Kabat numbering, V domains shown)
VH: B2 VH with L5V, R44G, S75A, T78S, I93V, F95Y
VL: B5 VL with G91A
notes: built from the Ab47 light chain variable region with G91A; IgG1; also called Ab47 variant bearing a G91A mutation in LCDR3
B13: the dissociation constant Kd in [9] turned out to be 100 nM; in assay [14], 19.8 nM.

B14: hB6H12.17 (antibody, V domains shown)
VH: B2 VH with L5V, R44G, P61A, M83I, I93V, F95Y
VL: B3 VL with T85V
notes: also called hvH5/hvK1; antibody 17 (bin B)
B14: the Kd in assay [4] came to 1 nM. Moreover, the EC50 in assay [5] was found to be 43 nM.

B15: Ab47 bearing the A4B4 coiled coil masking domain (antibody)
VH: GKIAALKQKIAALKYKNAALKKKIAALKQGGGGGPLGVRGGGGSEVQLVESGGGLVQPGGSLRLSCAASGFTFSGYGMSWVRQAPGKGLEWVATITSGGTYTYYPDSVKGRFTISRDNAKNSLYLQMNSLRAEDTAVYYCARSLAGNAMDYWGQGTLVTVSS
VL: GEIAALEQEIAALEKENAALEWEIAALEQGGGGGPLGVRGGGGSEIVLTQSPATLSLSPGERATLSCRASQTISDYLHWYQQKPGQAPRLLIKFASQSISGIPARFSGSGSGTDFTLTISSLEPEDFAVYYCQNGHGFPRTFGQGTKVEIKR
notes: IgG1
As for B15, the equilibrium dissociation constant (Kd) in assay [8] was found to be 1680 nM; in assay [10], 1180 nM; in assay [13] it was 1120 nM; in [15] it was 466 nM.

B16: Ab47 bearing the A2B1 coiled coil masking domain (antibody)
VH: GASTSVDELQAEVDQLQDENYALKTKVAQLRKKVEKLSEGGGGGPLGVRGGGGSEVQLVESGGGLVQPGGSLRLSCAASGFTFSGYGMSWVRQAPGKGLEWVATITSGGTYTYYPDSVKGRFTISRDNAKNSLYLQMNSLRAEDTAVYYCARSLAGNAMDYWGQGTLVTVSS
VL: GASTTVAQLRERVKTLRAQNYELESEVQRLREQVAQLASGGGGGPLGVRGGGGSEIVLTQSPATLSLSPGERATLSCRASQTISDYLHWYQQKPGQAPRLLIKFASQSISGIPARFSGSGSGTDFTLTISSLEPEDFAVYYCQNGHGFPRTFGQGTKVEIKR
notes: IgG1
B16 gave a Kd in [18] of 1780 nM.
